US20230272088A1 (SYNTHEKINE, published 2023)

Columns and labels:
[1] = target: T1, extracellular domain of mIFNGR1 (mouse, UniProt P15261 26-254, conjugated to Alexa647 (site not stated)); experiment: flow cytometry
T1 construct: Origin and tags of the murine antigen are not described; UniProt P15261 residues 26-254; also called mIFNGR1-ECD; murine IFNGR1 ECD
T1 sequence: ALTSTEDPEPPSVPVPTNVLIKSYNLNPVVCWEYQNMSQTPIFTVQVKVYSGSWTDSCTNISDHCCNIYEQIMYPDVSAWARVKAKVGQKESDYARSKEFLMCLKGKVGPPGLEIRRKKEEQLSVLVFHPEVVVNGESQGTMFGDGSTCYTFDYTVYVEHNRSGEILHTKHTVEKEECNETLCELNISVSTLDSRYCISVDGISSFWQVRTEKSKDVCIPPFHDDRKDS

[2] = target: T2, extracellular domain of hIFNGR1 (human, UniProt P15260 18-245, conjugated to Alexa647 (site not stated)); experiment: flow cytometry
T2 construct: UniProt P15260 residues 18-245; also called hIFNGR1-ECD; human IFNGR1 ECD
T2 sequence: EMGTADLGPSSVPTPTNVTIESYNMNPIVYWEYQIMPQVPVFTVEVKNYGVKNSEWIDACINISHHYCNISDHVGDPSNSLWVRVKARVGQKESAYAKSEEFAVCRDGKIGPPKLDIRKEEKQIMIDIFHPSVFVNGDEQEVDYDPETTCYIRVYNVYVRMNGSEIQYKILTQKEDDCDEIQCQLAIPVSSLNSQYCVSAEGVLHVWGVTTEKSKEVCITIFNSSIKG

B1: DR908 (VHH)
VHH: EVQLVESGGGLVQAGGSLRVTCAASGRTFTSLAMGWFRQAPGKEREFVAAISRSGGSTDYADSVKGRFFISRDNAKSTLYLQMSSLKPEDTAVYYCAARDYSTLQYYNEYEYSDWGQGTQVTVSS
notes: also called anti-IFNGR1 sdAb VHH DR908
B1: binds [1]; binds [2].
